Reference: US20260159579A1 (Pfizer, published 2026)
Values joined by “and” are separate entries in the source; they are usually repeats but may differ in a detail not shown here. Equal values may be shown once.

Assays:
human BMP11 = molecular target: T1, human BMP11 (human, UniProt O95390 299-407); test: BLI, OctetRED 384; family member amine coupled to AR2G biosensor
T1 construct: Bought; also called GDF-11
T1 sequence (looked up): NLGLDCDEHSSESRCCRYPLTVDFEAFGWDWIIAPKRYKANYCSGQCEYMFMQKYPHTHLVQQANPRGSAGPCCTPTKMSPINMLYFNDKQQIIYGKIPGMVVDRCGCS
Procedure: (§1) To assess the binding specificity of GDF15_001 to human GDF15, GDF15_001 binding to additional TGFB family members was tested. Analysis was carried out on an Octet Red instrument.
(§2) The TGFB family members were diluted to 10 ug/ml in 10 mM Sodium Acetate pH 4.5 and amine coupled onto AR2G biosensors (catalogue #18-5092, ForteBio) according to the manufacturer's instructions. Monomeric GDF15_001 was diluted to 200 nM in kinetics buffer (catalogue #18-5032 ForteBio). Octet assays were conducted at room temperature with an association time of 300 seconds and a dissociation time of 180 seconds. The data was double referenced (Myszka, D., J. Mol. Recognit 1999; 279-284) and analyzed with Octet Data Analysis software version 8.1 (ForteBio).

human TGFß-1 = molecular target: T2, human TGFß-1 (human, UniProt P01137 279-390); test: as above
T2 construct: Bought; also called TGFB-1
Procedure: as §1, §2

human Inhibin A = molecular target: T3, human Inhibin A (human, UniProt P05111 233-366; P08476 311-426); test: as above
T3 construct: Bought
T3 sequence (looked up) 1: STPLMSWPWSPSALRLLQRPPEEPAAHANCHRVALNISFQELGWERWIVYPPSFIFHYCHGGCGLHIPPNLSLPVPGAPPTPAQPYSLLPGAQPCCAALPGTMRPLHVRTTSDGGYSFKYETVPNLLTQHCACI
T3 sequence (looked up) 2: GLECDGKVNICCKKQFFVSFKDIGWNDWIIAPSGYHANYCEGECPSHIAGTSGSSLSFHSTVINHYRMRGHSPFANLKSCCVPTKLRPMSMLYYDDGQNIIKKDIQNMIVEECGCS
Procedure: as §1, §2

human GDF8 = molecular target: T4, human GDF8 (human, UniProt O14793 267-375, limits assumed); test: as above
T4 construct: In-house material
T4 sequence (looked up): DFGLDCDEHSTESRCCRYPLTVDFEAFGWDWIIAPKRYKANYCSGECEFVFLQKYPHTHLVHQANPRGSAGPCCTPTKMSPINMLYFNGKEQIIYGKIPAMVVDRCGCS
Procedure: as §1, §2

[1] = molecular target: Mouse Fc-mouse GDF15 (Mu IgG1Fc_Fxa_Mu GDF15) (mouse); test: SPR BIAcore T200, 37C; Fc-GDF15 captured, monomeric Fc-Fab as analyte; average of runs
[2] = molecular target: Mouse Fc-mouse GDF15 (Mu IgG1Fc_Fxa_Mu GDF15) (mouse); test: SPR BIAcore T200, 37C; Fc-GDF15 captured, monomeric Fc-Fab as analyte; murine GDF15 ligand (Mu IgG1Fc_Fxa_Mu GDF15), first run
[3] = molecular target: T5, Mouse Fc-cynomolgus monkey GDF15 (Mu IgG1Fc_Fxa_Cyno GDF15) (cynomolgus monkey); test: SPR BIAcore T200, 37C; Fc-GDF15 captured, monomeric Fc-Fab as analyte
T5 construct: Whole entry is the fusion: mouse IgG1 Fc, FXa site and linker, cynomolgus GDF15; described as dimeric; also called Murine dimeric IgG1 Fc-cyno GDF-15 with FXa cleavage site
T5 chain: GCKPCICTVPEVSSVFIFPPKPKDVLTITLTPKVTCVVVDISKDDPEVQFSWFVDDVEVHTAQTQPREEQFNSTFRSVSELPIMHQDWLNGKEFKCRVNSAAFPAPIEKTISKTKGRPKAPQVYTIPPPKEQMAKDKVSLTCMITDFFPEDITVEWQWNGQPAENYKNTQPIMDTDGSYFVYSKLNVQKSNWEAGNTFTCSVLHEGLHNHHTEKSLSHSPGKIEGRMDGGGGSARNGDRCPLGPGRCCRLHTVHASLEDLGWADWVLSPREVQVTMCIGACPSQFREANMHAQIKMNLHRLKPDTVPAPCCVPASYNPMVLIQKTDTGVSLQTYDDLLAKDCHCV
Description: (§3) To understand the KD value, without the avidity effect, of GDF15_001 binding to GDF15, monomeric Fc-Fab was produced and tested in the same assay used in Example 2. […] Mu IgG1Fc_Fxa_Hu GDF15, Mu IgG1Fc_Fxa_Mu GDF15 and Mu IgG1Fc_Fxa_Cyno GDF15 were captured onto three different flow cells of a CM4 sensorchip (catalogue number BR100534, GE Healthcare) surface using the Mouse Antibody Capture Kit (BR100838, GE Healthcare) according to the manufacturer's protocol. The running and sample buffer was 10 mM HEPES pH 7.4, 0.15M NaCl, 3 mM EDTA, 0.05% P-20 (HBS-EP+). The final capture levels of Mu IgG1Fc_Fxa_Hu GDF15, Mu IgG1Fc_Fxa_Mu GDF15 and Mu IgG1Fc_Fxa_Cyno GDF15 were 19 resonance units (RU), 22 RU and 19 RU respectively. Flow cell 1 was used as a reference flow cell. […] The dissociation was monitored for 1200 seconds and the surface was regenerated with 10 mM Glycine pH 1.7. Binding affinities and rate constants were determined by fitting the resulting sensorgram data to a 1:1 Langmuir model in BIAcore T200 Evaluation software version 2.0 (GE Healthcare).

[4] = molecular target: T6, Mouse Fc-human GDF15 (Mu IgG1Fc_Fxa_Hu GDF15) (human); test: as above
T6 construct: Whole entry is the fusion: mouse IgG1 Fc, FXa site and linker, mature human GDF15; described as dimeric; also called Murine dimeric IgG1 Fc-human GDF-15 with FXa cleavage site; control human GDF15
T6 chain: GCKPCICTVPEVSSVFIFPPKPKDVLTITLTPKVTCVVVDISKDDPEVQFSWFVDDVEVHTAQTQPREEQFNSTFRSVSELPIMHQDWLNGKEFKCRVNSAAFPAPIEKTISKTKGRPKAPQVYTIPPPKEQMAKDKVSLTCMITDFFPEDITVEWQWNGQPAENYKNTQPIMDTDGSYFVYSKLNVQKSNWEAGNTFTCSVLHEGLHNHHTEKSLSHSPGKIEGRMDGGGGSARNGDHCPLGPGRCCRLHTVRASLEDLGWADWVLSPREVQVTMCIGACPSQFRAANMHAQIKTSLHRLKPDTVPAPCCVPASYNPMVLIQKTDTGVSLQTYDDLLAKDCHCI
Description: as §3

T2 sequence (P01137 279-390 limits assumed): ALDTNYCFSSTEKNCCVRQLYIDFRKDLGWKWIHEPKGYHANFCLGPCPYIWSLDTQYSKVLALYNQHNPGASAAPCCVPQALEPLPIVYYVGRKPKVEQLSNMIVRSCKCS

binding result (human BMP11): no binding (tested: 200 nM)
binding result (human TGFß-1): no binding (tested: 200 nM)
binding result (human Inhibin A): no binding (tested: 200 nM)
binding result (human GDF8): no binding (tested: 200 nM)
Kd [1]: 1.97 nM
koff [1]: 0.00326 s⁻¹
kon [1]: 1.66e+06 M⁻¹ s⁻¹
Kd [2]: 2.11 nM
Kd [3]: 0.0458 nM and 0.0782 nM
T½ min [3]: 2.57 h and 2.05 h
koff [3]: 7.48e-05 s⁻¹ and 9.39e-05 s⁻¹
kon [3]: 1.63e+06 M⁻¹ s⁻¹ and 1.2e+06 M⁻¹ s⁻¹
T½ min [4]: 8.54 h and 4.2 h
koff [4]: 2.25e-05 s⁻¹ and 4.58e-05 s⁻¹
kon [4]: 1.52e+06 M⁻¹ s⁻¹ and 1.66e+06 M⁻¹ s⁻¹
B1: monomeric GDF15_001 (CH23LS-GBT-GDF15_001) (Fab, V domains shown)
VH: QVQLVQSGAEVKKPGSSVKVSCKASGYTFSSYNIDWVRQAPGQGLEWMGGINPIFGTAFYNQKFQGRVTITADESTSTAYMELSSLRSEDTAVYYCAREAITTVGAMDHWGQGTLVTVSS
VL: EIVLTQSPATLSLSPGERATLSCRTSQSVHNYLAWYQQKPGQAPRLLIYDASTRADGIPARFSGSGSGTDFTLTISSLEPEDFAVYYCQQFWSWPWTFGQGTKVEIK
notes: Monovalent 'monomeric Fc-Fab' of GDF15_001 made to measure KD without avidity; also called CH23LS-GDF15_001; monomeric Fc-Fab
